Results as given in patent US20090252748A1.

How the values were obtained:
[1] = target: human Sp35 protein expressed on transfected cells (human) (UniProt Q96FE5); assay: FACS, live human LINGO-1 transfected 293 cells, PE-labelled secondary antibody without primary antibody, FL2-H; Cell only 0.94 [panel 2nd Ab only]
[2] = target: human Sp35 protein expressed on transfected cells (human) (UniProt Q96FE5); assay: FACS, live human LINGO-1 transfected 293 cells, PE-labelled secondary antibody without primary antibody, FL2-H; Cell only 4.47 [panel 2nd Ab only]
[3] = target: human Sp35 protein expressed on transfected cells (human) (UniProt Q96FE5); assay: FACS, live human LINGO-1 transfected 293 cells, PE-labelled secondary antibody without primary antibody, FL2-H; Cell only 4.71 [panel 2nd Ab only]
[4] = target: human Sp35 protein expressed on transfected cells (human) (UniProt Q96FE5); assay: FACS, live human LINGO-1 transfected 293 cells, PE-labelled secondary antibody without primary antibody, FL2-H; Cell only 5.81 [panel 2nd Ab only]
CD32 = CD32 binding assay, format not described

Chain of human Sp35 protein expressed on transfected cells (human) (Q96FE5 40-620): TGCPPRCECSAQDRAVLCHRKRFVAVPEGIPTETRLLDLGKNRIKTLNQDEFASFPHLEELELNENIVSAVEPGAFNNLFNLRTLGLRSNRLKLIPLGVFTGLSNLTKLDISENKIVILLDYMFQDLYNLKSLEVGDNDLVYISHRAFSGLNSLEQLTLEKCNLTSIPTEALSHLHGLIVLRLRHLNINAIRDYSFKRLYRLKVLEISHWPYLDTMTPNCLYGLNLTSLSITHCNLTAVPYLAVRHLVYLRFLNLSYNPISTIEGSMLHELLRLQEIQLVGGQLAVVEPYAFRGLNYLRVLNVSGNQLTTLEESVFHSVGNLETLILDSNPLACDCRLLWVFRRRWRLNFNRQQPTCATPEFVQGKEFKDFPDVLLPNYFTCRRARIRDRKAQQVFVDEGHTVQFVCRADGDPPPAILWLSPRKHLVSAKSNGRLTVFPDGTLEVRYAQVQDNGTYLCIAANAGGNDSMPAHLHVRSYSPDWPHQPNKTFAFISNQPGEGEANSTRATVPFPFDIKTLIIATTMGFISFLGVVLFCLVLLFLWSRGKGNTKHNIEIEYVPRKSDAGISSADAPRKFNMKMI

**Q.** Which results are given for “2nd Ab only (PE-labelled secondary antibody without primary antibody)”?
**A.** number over the marker gate of the FL2-H histogram [1]: 5.52; (FL2-H) Geom. Mean [2]: 6.6; (FL2-H) Median [3]: 6.76; (FL2-H) Mean [4]: 8.78

**Q.** For Li33Ig2 agly (antibody), which IC50 (CD32) is on record?
**A.** Its IC50 is 25 µg/mL.

**Q.** For Li33Ig2 wt (antibody), which IC50 (CD32) is on record?
**A.** Its IC50 is 4.3 µg/mL.
